B1: unnamed (parent)
chain 1: PALTPSLGAKPKPQVLSDSGGPLIDLLTEDPPPYRDPRPPPSDRDGNGGEATPAGEAPDPSPMASRLRGRREPPVADSTTSQAF
chain 2: MAQISSNSGFKECPSSHPEPTRAKDVDKEEALQMEAEALAKLQKDRQVTDNQRGFELSSSTRKKAQVYNKQDYDLMVFPESDSQKRALDIDVEKLTQAELEKLLLDDSFETKKTPVLPVTPILSPSFSAQLYFRPTIQRGQWPPGLPGPSTYALPSIYPSTYSKQAAFQNGFNPRMPTFPSTEPIYLSLPGQSPYFSYPLTPATPFHPQGSLPIYRPVVSTDMAKLFDKIASTSEFLKNGKARTDLEITDSKVSNLQVSPKSEDISKFDWLDLDPLSKPKVDNVEVLDHEEEKNVSSLLAKDPWDAVLLEERSTANCHLERKVNGKSLSVATVTRSQSLNIRTTQLAKAQGHISQKDPNGTSSLPTGSSLLQEVEVQNEEMAAFCRSITKLKTKFPYTNHRTNPGYLLSPVTAQRNICGENASVKVSIDIEGFQLPVTFTCDVSSTVEIIIMQALCWVHDDLNQVDVGSYVLKVCGQEEVLQNNHCLGSHEHIQNCRKWDTEIRLQLLTFSAMCQNLARTAEDDETPVDLNKHLYQIEKPCKEAMTRHPVEELLDSYHNQVELALQIENQHRAVDQVIKAVRKICSALDGVETLAITESVKKLKRAVNLPRSKTADVTSLFGGEDTSRSSTRGSLNPENPVQVSINQLTAAIYDLLRLHANSGRSPTDCAQSSKSVKEAWTTTEQLQFTIFAAHGISSNWVSNYEKYYLICSLSHNGKDLFKPIQSKKVGTYKNFFYLIKWDELIIFPIQISQLPLESVLHLTLFGILNQSSGSSPDSNKQRKGPEALGKVSLPLFDFKRFLTCGTKLLYLWTSSHTNSVPGTVTKKGYVMERIVLQVDFPSPAFDIIYTTPQVDRSIIQQHNLETLENDIKGKLLDILHKDSSLGLSKEDKAFLWEKRYYCFKHPNCLPKILASAPNWKWVNLAKTYSLLHQWPALYPLIALELLDSKFADQEVRSLAVTWIEAISDDELTDLLPQFVQALKYEIYLNSSLVQFLLSRALGNIQIAHNLYWLLKDALHDVQFSTRYEHVLGALLSVGGKRLREELLKQTKLVQLLGGVAEKVRQASGSARQVVLQRSMERVQSFFQKNKCRLPLKPSLVAKELNIKSCSFFSSNAVPLKVTMVNADPMGEEINVMFKVGEDLRQDMLALQMIKIMDKIWLKEGLDLRMVIFKCLSTGRDRGMVELVPASDTLRKIQVEYGVTGSFKDKPLAEWLRKYNPSEEEYEKASENFIYSCAGCCVATYVLGICDRHNDNIMLRSTGHMFHIDFGKFLGHAQMFGSFKRDRAPFVLTSDMAYVINGGEKPTIRFQLFVDLCCQAYNLIRKQTNLFLNLLSLMIPSGLPELTSIQDLKYVRDALQPQTTDAEATIFFTRLIESSLGSIATKFNFFIHNLAQLRFSGLPSNDEPILSFSPKTYSFRQDGRIKEVSVFTYHKKYNPDKHYIYVVRILREGQIEPSFVFRTFDEFQELHNKLSIIFPLWKLPGFPNRMVLGRTHIKDVAAKRKIELNSYLQSLMNASTDVAECDLVCTFFHPLLRDEKAEGIARSADAGSFSPTPGQIGGAVKLSISYRNGTLFIMVMHIKDLVTEDGADPNPYVKTYLLPDNHKTSKRKTKISRKTRNPTFNEMLVYSGYSKETLRQRELQLSVLSAESLRENFFLGGVTLPLKDFNLSKETVKWYQLTAATYL
B2: unnamed (parent)
chain 1: B1 chain 1
chain 2: MAQILPIRFQEHLQLQNLGINPANIGFSTLTMESDKFICIREKVGEQAQVVIIDMNDPSNPIRRPISADSAIMNPASKVIALKAGKTLQIFNIEMKSKMKAHTMTDDVTFWKWISLNTVALVTDNAVYHWSMEGESQPVKMFDRHSSLAGCQIINYRTDAKQKWLLLTGISAQQNRVVGAMQLYSVDRKVSQPIEGHAASFAQFKMEGNAEESTLFCFAVRGQAGGKLHIIEVGTPPTGNQPFPKKAVDVFFPPEAQNDFPVAMQISEKHDVVFLITKYGYIHLYDLETGTCIYMNRISGETIFVTAPHEATAGIIGVNRKGQVLSVCVEEENIIPYITNVLQNPDLALRMAVRNNLAGAEELFARKFNALFAQGNYSEAAKVAANAPKGILRTPDTIRRFQSVPAQPGQTSPLLQYFGILLDQGQLNKYESLELCRPVLQQGRKQLLEKWLKEDKLECSEELGDLVKSVDPTLALSVYLRANVPNKVIQCFAETGQVQKIVLYAKKVGYTPDWIFLLRNVMRISPDQGQQFAQMLVQDEEPLADITQIVDVFMEYNLIQQCTAFLLDALKNNRPSEGPLQTRLLEMNLMHAPQVADAILGNQMFTHYDRAHIAQLCEKAGLLQRALEHFTDLYDIKRAVVHTHLLNPEWLVNYFGSLSVEDSLECLRAMLSANIRQNLQICVQVASKYHEQLSTQSLIELFESFKSFEGLFYFLGSIVNFSQDPDVHFKYIQAACKTGQIKEVERICRESNCYDPERVKNFLKEAKLTDQLPLIIVCDRFDFVHDLVLYLYRNNLQKYIEIYVQKVNPSRLPVVIGGLLDVDCSEDVIKNLILVVRGQFSTDELVAEVEKRNRLKLLLPWLEARIHEGCEEPATHNALAKIYIDSNNNPERFLRENPYYDSRVVGKYCEKRDPHLACVAYERGQCDLELINVCNENSLFKSLSRYLVRRKDPELWGSVLLESNPYRRPLIDQVVQTALSETQDPEEVSVTVKAFMTADLPNELIELLEKIVLDNSVFSEHRNLQNLLILTAIKADRTRVMEYINRLDNYDAPDIANIAISNELFEEAFAIFRKFDVNTSAVQVLIEHIGNLDRAYEFAERCNEPAVWSQLAKAQLQKGMVKEAIDSYIKADDPSSYMEVVQAANTSGNWEELVKYLQMARKKARESYVETELIFALAKTNRLAELEEFINGPNNAHIQQVGDRCYDEKMYDAAKLLYNNVSNFGRLASTLVHLGEYQAAVDGARKANSTRTWKEVCFACVDGKEFRLAQMCGLHIVVHADELEELINYYQDRGYFEELITMLEAALGLERAHMGMFTELAILYSKFKPQKMREHLELFWSRVNIPKVLRAAEQAHLWAELVFLYDKYEEYDNAIITMMNHPTDAWKEGQFKDIITKVANVELYYRAIQFYLEFKPLLLNDLLMVLSPRLDHTRAVNYFSKVKQLPLVKPYLRSVQNHNNKSVNESLNNLFITEEDYQALRTSIDAYDNFDNISLAQRLEKHELIEFRRIAAYLFKGNNRWKQSVELCKKDSLYKDAMQYASESKDTELAEELLQWFLQEEKRECFGACLFTCYDLLRPDVVLETAWRHNIMDFAMPYFIQVMKEYLTKVDKLDASESLRKEEEQATETQPIVYGQPQLMLTAGPSVAVPPQAPFGYGYTAPPYGQPQPGFGYSM
B3: unnamed (parent)
chain 1: B1 chain 1
chain 2: MLNMWKVRELVDKATNVVMNYSEIESKVREATNDDPWGPSGQLMGEIAKATFMYEQFPELMNMLWSRMLKDNKKNWRRVYKSLLLLAYLIRNGSERVVTSAREHIYDLRSLENYHFVDEHGKDQGINIRQKVKELVEFAQDDDRLREERKKAKKNKDKYVGVSSDSVGGFRYSERYDPEPKSKWDEEWDKNKSAFPFSDKLGELSDKIGSTIDDTISKFRRKDREDSPERCSDSDEEKKARRGRSPKGEFKDEEETVTTKHIHITQATETTTTRHKRTANPSKTIDLGAAAHYTGDKASPDQNASTHTPQSSVKTSVPSSKSSGDLVDLFDGTSQSTGGSADLFGGFADFGSAAASGSFPSQVTATSGNGDFGDWSAFNQAPSGPVASSGEFFGSASQPAVELVSGSQSALGPPPAASNSSDLFDLMGSSQATMTSSQSMNFSMMSTNTVGLGLPMSRSQNTDMVQKSVSKTLPSTWSDPSVNISLDNLLPGMQPSKPQQPSLNTMIQQQNMQQPMNVMTQSFGAVNLSSPSNMLPVRPQTNALIGGPMPMSMPNVMTGTMGMAPLGNTPMMNQSMMGMNMNIGMSAAGMGLTGTMGMGMPNIAMTSGTVQPKQDAFANFANFSK
B4: unnamed (parent)
chain 1: B1 chain 1
chain 2: MAELDPFGAPAGAPGGPALGNGVAGAGEEDPAAAFLAQQESEIAGIENDEAFAILDGGAPGPQPHGEPPGGPDAVDGVMNGEYYQESNGPTDSYAAISQVDRLQSEPESIRKWREEQMERLEALDANSRKQEAEWKEKAIKELEEWYARQDEQLQKTKANNRVADEAFYKQPFADVIGYVTNINHPCYSLEQAAEEAFVNDIDESSPGTEWERVARLCDFNPKSSKQAKDVSRMRSVLISLKQAPLVH

Variants of: B1
Test: SILAC-MS of GST pull-down
Conditions: with partner chain of the complex shown; mitotic 293T cell lysates; replicate R1

Row | Variant | screen value (SDs from the mean)
1 | chain 1 S65A R66A L67A R68A G69A | 1.4

Same assay, conditions: with partner chain of the complex shown; mitotic 293T cell lysates; replicate R2

Row | Variant | screen value (SDs from the mean)
2 | chain 1 S65A R66A L67A R68A G69A | 1.4

Variants of: B2
Test: SILAC-MS of GST pull-down
Conditions: with partner chain of the complex shown; mitotic 293T cell lysates; replicate R1

Row | Variant | screen value (SDs from the mean)
3 | chain 1 S65A R66A L67A R68A G69A | 1

Same assay, conditions: with partner chain of the complex shown; mitotic 293T cell lysates; replicate R2

Row | Variant | screen value (SDs from the mean)
4 | chain 1 S65A R66A L67A R68A G69A | 2.3

Variants of: B3
Test: SILAC-MS of GST pull-down
Conditions: with partner chain of the complex shown; mitotic 293T cell lysates; replicate R1

Row | Variant | screen value (SDs from the mean)
5 | chain 1 S65A R66A L67A R68A G69A | 1.4

Same assay, conditions: with partner chain of the complex shown; mitotic 293T cell lysates; replicate R2

Row | Variant | screen value (SDs from the mean)
6 | chain 1 S65A R66A L67A R68A G69A | 3.3

Variants of: B4
Test: SILAC-MS of GST pull-down
Conditions: with partner chain of the complex shown; mitotic 293T cell lysates; replicate R2

Row | Variant | screen value (SDs from the mean)
7 | chain 1 S65A R66A L67A R68A G69A | 1.4
